Experimental findings from patent publication US20090017017A1 (SYMPHOGEN A S, published 2009) are described below.

T1: Rhesus D antigen (human, UniProt Q02161 2-417)
T1 construct: whole, on cells; Presented on RhD(+) erythrocytes; also called RhD; RhD antigen
T1 sequence (looked up): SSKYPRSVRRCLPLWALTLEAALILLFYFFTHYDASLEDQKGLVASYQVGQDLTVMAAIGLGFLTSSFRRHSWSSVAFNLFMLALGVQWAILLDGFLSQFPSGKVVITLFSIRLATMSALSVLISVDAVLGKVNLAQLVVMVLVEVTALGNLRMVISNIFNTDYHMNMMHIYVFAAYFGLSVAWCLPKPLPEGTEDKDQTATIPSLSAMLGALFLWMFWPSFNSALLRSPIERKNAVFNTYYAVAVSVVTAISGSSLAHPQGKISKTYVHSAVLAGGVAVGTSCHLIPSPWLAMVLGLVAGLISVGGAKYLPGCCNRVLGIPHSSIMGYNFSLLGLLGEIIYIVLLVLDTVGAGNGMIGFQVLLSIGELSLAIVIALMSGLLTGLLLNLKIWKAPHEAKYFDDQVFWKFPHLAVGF

B1: RhD306.223E11 (Fab, V domains shown)
VH: QVQLVESGGGVVQPGRSLRLSCAASGFTFSSYGMHWVRQAPGKGLEWVAVIWYDGSNKYYADSVKGRFTISRDNSKNTLYLQMNTLRDDDTAVYYCAREGTLYSSSWYRRYYYYGMDAWGQGTTVTVSS
VL: EIVLTQSPGTLSLSPGERVTLSCRPSRYIASDYLAWYQLRPGQAPKLLIYGASSRATGIPDRFSGVGSPTDFTLTISRLEPEDFAMYYCHYSGGSPPYPFGQGTRLDIKR
notes: Tested as Fab in E. coli periplasmic extract (VH on human gamma 1 CH1, vector Em351)
B2: RhD321.187G08 (Fab, V domains shown)
VH: EVQLVESGGGLVKPGGSLRLSCAASGFTFRSYSMNWVRQAPGKGLEWVSSIGSSSIYTYSADSVKGRFTISRDNAKNSLYLQMNSLRAEDTAVYYCARGEPLNYDYIWGRSRLTIHWGQGTLVTVSS
VL: LNFMLTQPHSVSESPGKTVTISCTRSSGSIASNYMQWYQQRPGSSPTTVIYEDNRRPSGVPDRFSGSIDSSSNSASLTISGLKTEDEADYYCQSYDSNNWVFGGGTKLTVLG
notes: as for B1
B3: RhD307.230E11 (Fab, V domains shown)
VH: QVQLVETGGGVVQPGRSLRLSCAASGFTFSSYGMHWVRQAPGKGLEWVAGIWYDGSNKYYGDSVKGRFTISRDNSRNTLYLHMNSLRADDTAVYYCAREHGGSRSGWYTLRLAYYFDYWGQGTLVTVSS
VL: DIQLTQSPSSLSASVGDRVTITCRASQYINVYLNWYQHKAGRAPKLLIYAASNLQSGVPPRFIGSGSGTDFTLTISSLQSEDFATYYCLQSFTVPRTFGPGTKVDVKR
notes: as for B1
B4: RhD299.127A12 (Fab, V domains shown)
VH: QVQLVESGGGVVQPGRSLRLSCAASGFTFSNFGMHWVRQAPGKGLEWVAVIWYDGSNKDYADSVKGRFTISRDNSKRTLYLQMNSLRAEDTAVYYCARELARGRLRDLDYWGQGTLVTVSS
VL: QAVVTQEPSLTVSPGGTVTLTCASSTGAVTTGYYPNWFQQKPGQAPRALIYSTSKKHSWTPARFSGSLLGGKAALTLSGVQPEDEAEYYCLLFYGGAQLGVFGGGTKLTVLG
notes: as for B1
B5: RhD319.187A11 (Fab, V domains shown)
VH: QVQLVESGGGVVQPGRSLRLSCAASGFTFSTYGMHWVRQAPGKGLEWVAVIWYDGSNKNYADSVKGRFTISRDNSKNTLYLQMNSLRAEDTAVYYCARDLQGYRSSWYRMYYYYGMDVWGQGTTVTVSS
VL: QTVVTQEPSLTVSPGGTVTLTCASSTGAVTSGYYPNWFQQKPGQAPRALIYSTSNKHSWTPARFSGSLLGGKAALTLSGVQPEDEAEYYCLLYYGGAQRWVFGGGTILTVLG
notes: as for B1
B6: RhD300.134H09 (Fab, V domains shown)
VH: QVQLVESGGGVVQPGRSLRLSCAASGFTFSSYGMHWVRQAPGKGLEWVAVIWYDGSNKYYADSVKGRFTISRDNSKNTLYLQMNSLRAEDTAVYYCAREFYTRSGLWSQGYSYYMDVWGKGTTVTVSS
VL: QTVVTQEPSFSVSPGGTVTLTCGLSSGSVSARYYPSWYQQTPGQPPRTLIHSTNTRSSGVPDRFSGSILGNKAALTITGAQADDESDYYCVLYMGSGPWVFGGGTKLTVLG
notes: as for B1
B7: RhD304.164B06 (Fab, V domains shown)
VH: QVQLVQSGGGVVQPGRSLRLSCAASGFTFSSYGMHWVRQAPGKGLEWVAVIWYDGSNKYYADSVKGRFTISRDNSKNTLYLQMNSLRAEDTAVYYCARETVVVAAKIRNHYYYAMDVWGQGTTVTVSS
VL: DIQMTQSPSSLSASLGGTVTLTCRSSQFISRYLNWYQQHPGKVPRLLISGASRLQRGVPSRFTGGGSGTDFTLTIKNVQPDDIATYFCQHSYRSGRAFGQGTTVEVKR
notes: as for B1
B8: RhD301.160A04 (Fab, V domains shown)
VH: QVQLVESGGGVVQPGRSLRLSCAASGFTFSSYGMHWVRQAPGKGLEWVAVIWFDGGNKYYADSAKGRFTISRDNSKNTLYLQMNSLRAEDTAVYYCARDASVLSGLVTRRLVYYGMDVWGQGTTVTVSS
VL: DVVMTQSPLSLPVTPGEPASISCRSSQSLLHRNGYNYLNWYLQKPGQSPQLLIYLGSNRASGVPDRFSGSGSGTDFTLKISGVEAEDVAFYYCMQGLRTPYTFGQGTKLEIKR
notes: as for B1
B9: RhD302.160B10 (Fab, V domains shown)
VH: QVQLVESGGGVVQPGRSLRLSCAASGFTFSSYGMHWVRQAPGKGLEWVAFISYDGSNKYYADSVKGRFTISRDNSKNTLSLQMNSLRAEDTAVYYCAKEHGYYRSSWYRNYYYYGMDVWGQGTTVTVSS
VL: DIQLTQSPSSLSASVGDRVTITCRASQSISSYLNWYKQRPGKAPKLLIYAASTLQSGVPSRFSGSGSGTDFALTISSLQAEDFATYYCQQTYSTLWTFGQGTKVEITR
notes: as for B1
B10: RhD303.160B11 (Fab, V domains shown)
VH: QVQLVESGGGVVQPERSLRLSCAASGFTFSSYGMHWVRQAPGKGLEWVAVISYDGSNKYYADSVKGRFTISRDNSKNTLYLQMNSLRAEDTAVYYCAKDEVGYSSSWYRRYYYYAMDVWGQGTTVTVSS
VL: EIVLTQSPGTLSLSPGETATLSCRASQSVSDRDLAWYQQKSGQSPRLLMYGGSTRAPGIPVRFSGSGSGTEFTLTISSLQSEDFAIYYCQHYHDWPPTFGQGTRLEIKR
notes: as for B1
B11: RhD305.181E06 (Fab, V domains shown)
VH: QVQLVESGGGVVQPGRSLRLSCAASGFTFSSYGMHWVRQAPGKGLEWVAGIWYDGSNKYYADSVKGRFTISRDNSRNTMYLQMNSLRAEDTAVYYCAREQGGYSSSWYRRYYYYNMDLWGQGTTVTVSS
VL: EIVLTQSPGSLSLSPGERATLSCRASQSVSSSYLAWYQQKPGQAPRLLIYGPSSRATGIPDRFSGSGSGTDFTLTISRLEPEDFAVYYCQHFGNSRGTFGQGTKVEIRR
notes: as for B1
B12: RhD317.144A02 (Fab, V domains shown)
VH: QVQLQESGPGLVKPSGTLSLTCAVSGGSIRGSNWWSWVRQPPGKGLEWIGEIHHGGSTNYNPSLKSRVTISVDKSKNRFSLKLSSVTAADTAVYYCARGTSYYDSSGYSFRGLVAFDIWGQGTMVTVSS
VL: EIVLTQSPGTLSLSPGERATLSCRASQSVSSAFLAWYQQKPGQAPRLLIYGASSRATGIPDRFSGSGSGTDFTLTISRLEPEDFAVYYCQQYGSFSITFGQGTRLEIKR
notes: as for B1
B13: RhD161.119E09 (Fab, V domains shown)
VH: EVQLVESGGGVVQSGRSLRLSCAASGFTFSNNGMHWVRQAPGKGLEWVAFIWYDGSNKYYADSVKGRFTISRDNSKNTLYLQMDGLRAEDSAVYYCAREEIAARLYSRYHYAMDVWGQGTMVTVSS
VL: DIQMTQSPSFLSASVGDRVTITCRASQGIRRYLAWFQQKPGKAPKLLIFSASTLQSGVPSRFSGSGSGTEFTLTISSLQPEDFATYYCQQLSSYPPYTFGQGTKLEIKR
notes: as for B1
B14: RhD296.126A03 (Fab, V domains shown)
VH: EVQLVESGGGVVQPGRSLRLSCEASGFTFSNYGMHWFRQAPGKGLEWVAIIWYDGSNKHYADSVKGRFTISRDNSKNTLYLQMNSLRAEDTAVYFCAREIASRGYSRYLYYFDSWGQGTLVTVSS
VL: DIQMTQSPSSLSASVGDRVTITCRASQSISSYLNWYQQKPGKAPKLLIFAASSLQSGVPSRFSGSGSGTDFSLTISSLQPEDFATYYCQQSYSSLALTFGGGTKVEIKR
notes: as for B1
B15: RhD160.119C07 (Fab, V domains shown)
VH: EVQLVESGGGVVQPGRSLRLSCAASGFTFSNYGMHWVRQAPGKGLEWVAVIWYDGSNRFYADSVKGRFTISRDNSKNTLYLQMNNLRAEDTALYSCAREITTTVVVRRHYLMDIWGQGTTVTVSS
VL: DIQLTQSPSSLSASVGDRVSITCRASQGISNSLAWYQQKPGKVPKLLIYAASTLQSGVPSRFSGGGSGTDFTLTISSLQPEDVATYYCQKYNSAPFAFGPGTKVDIKR
notes: as for B1

One assay addresses T1, Rhesus D antigen. The assay is described as follows: Fab screening on RBC (agglutination, FACS). As to the method:
(§1) After each round of panning single colonies were picked for analysis of their binding properties to red blood cells in agglutination assays. Briefly, single colonies were inoculated into 2×YT/100 μg/mL carbenicillin/1% glucose and shaken overnight at 37° C. The next day, DeepWell plates were inoculated using 900 μl 2×YT/100 μg/mL carbenicillin/0.1% glucose and 10 μl overnight culture. The plates were shaken for two hours at 37° C., before Fab induction was performed with addition of 300 μl 2×YT/100 μg/mL carbenicillin/0.25 mM IPTG per well. The plate was shaken overnight at 30° C. The following day, the bacteria were pelleted by centrifugation (3200×g, 4° C., 10 minutes), and re-suspended in 100 μl of 0.8 M NaCl, 0.2×PBS, 8 mM EDTA, and incubated for 15 minutes on ice in order to perform a periplasmic extraction of the Fab fragments. The plate was transferred to −20° C. and finally the suspension was thawed and centrifugation was performed for 10 minutes at 4° C. and 3200×g. The periplasmic extract was used in ELISA assays for analysis of Fab content and in agglutination assays to evaluate the binding potential of the individual Fab fragments.
(§2) The agglutination assay was performed as follows: RhD(−) and RhD(+) RBC were mixed in a 1:1 ratio, and washed 3 times in PBS. After the final wash, the cell mix was re-suspended in 1% BSA in PBS at a density of 10% cells, 50 μl was added to each well of a 96-plate. Periplasmic extracts were added to the wells. As a positive control Rhesogamma P immunoglobulin (Aventis) was used according to the manufacturer's instructions. The plates were incubated for one hour at room temperature with gentle shaking. The cells were washed three times with PBS, before the secondary antibody was added (goat anti-human Fab/FITC conjugate, Sigma F5512) in a 1:100 dilution. The plates were left for agglutination for one hour at room temperature without shaking. Fab fragments positive in the agglutination assay was determined by visual inspection, and recorded by taking a picture. Quantization of the binding activity of the Fab fragments was performed by FACS analysis of the agglutination samples.
For B1, the binding result is “binds”.

On to B2, for which the binding result is reported as “binds”.

Regarding B3, the binding result is “binds”.

For the molecule B4, the binding result is recorded as “binds”.

Consider B5, for which the binding result was “binds”.

With B6, the binding result is “binds”.

On to B7, for which the binding result is “binds”.

On to B8, for which the binding result is listed as “binds”.

Regarding B9, the binding result is “binds”.

B10: the binding result was “binds”.

B11: the binding result is listed as “binds”.

B12: the binding result is listed as “binds”.

The target of the next assay is T1, Rhesus D antigen. The assay is described as follows: agglutination assay, Fab periplasmic extract on RhD(+)/RhD(-) RBC mix. The procedure: as §1, §2
Take B13: the binding result is on record as “binds”.

On to B14, for which the binding result is recorded as “binds”.

Regarding B15, the binding result was “binds”.
